Starred links: 1 amine or outer side, 2 acyl side, 3 side chain; linkers in the order of their positions; H or OH if unused. Positions of bridges follow the written chain, without caps; N, C: chain ends. Non-standard residues stand in square brackets, D forms with d. Primed or numbered codes have the meaning given here. PyrS2(3) = (S)-3-amino-1-((pent-4-en-1-yloxy)carbonyl)pyrrolidine-3-carboxylic acid, stapling residue, C=CCCCOC(=O)N1CC[C@@](N[*:1])(C(=O)[*:2])C1; PyrS2″ = (S)-3-amino-1-((pent-4-en-1-yloxy)carbonyl)pyrrolidine-3-carboxylic acid (stapling residue), C=CCCCOC(=O)N1CC[C@@](N[*:1])(C(=O)[*:2])C1; B5(16) = 2-amino-2-(pent-4-en-1-yl)hept-6-enoic acid = 2,2-bis(4-pentenyl)glycine (stitching residue), C=CCCCC(CCCC=C)(N[*:1])C(=O)[*:2]; B5(4) = 2,2-bis(4-pentenyl)glycine = 2-amino-2-(pent-4-en-1-yl)hept-6-enoic acid (stitching residue), C=CCCCC(CCCC=C)(N[*:1])C(=O)[*:2]; TfeGA = (S)-2-amino-3-((carboxymethyl)(2,2,2-trifluoroethyl)amino)propanoic acid, O=C([C@H](CN(CC(=O)[*:3])CC(F)(F)F)N[*:1])[*:2]; PyrS2 = (S)-3-amino-1-((pent-4-en-1-yloxy)carbonyl)pyrrolidine-3-carboxylic acid, C=CCCCOC(=O)N1CC[C@@](N[*:1])(C(=O)[*:2])C1; B5(3) = 2,2-bis(4-pentenyl)glycine (stitching residue), C=CCCCC(CCCC=C)(N[*:1])C(=O)[*:2]; B5″ = 2,2-bis(4-pentenyl)glycine, stitching residue, C=CCCCC(CCCC=C)(N[*:1])C(=O)[*:2]; B5 = 2-amino-2-(pent-4-en-1-yl)hept-6-enoic acid, C=CCCCC(CCCC=C)(N[*:1])C(=O)[*:2]; Trp(1-Me) = Cn1cc(C[C@H](N)C(=O)O)c2ccccc21; Phe(2-Cl) = N[C@@H](Cc1ccccc1Cl)C(=O)O; Bta = N[C@@H](Cc1csc2ccccc12)C(=O)O; Lys(iPr) = CC(C)NCCCC[C@H](N)C(=O)O; αAllylPro = C=CC[C@@]1(C(=O)O)CCCN1; tBuAla = CC(C)(C)C[C@H](N)C(=O)O; 3Thi = N[C@@H](Cc1ccsc1)C(=O)O; S8 = C=CCCCCCC[C@](C)(N)C(=O)O; hSer = N[C@@H](CCO)C(=O)O
T1: full-length beta-Catenin (Uniprot ID P35222) (Homo sapiens (Human), UniProt P35222 2-781)
T1 construct: also called bCat; B-Catenin
T1 sequence: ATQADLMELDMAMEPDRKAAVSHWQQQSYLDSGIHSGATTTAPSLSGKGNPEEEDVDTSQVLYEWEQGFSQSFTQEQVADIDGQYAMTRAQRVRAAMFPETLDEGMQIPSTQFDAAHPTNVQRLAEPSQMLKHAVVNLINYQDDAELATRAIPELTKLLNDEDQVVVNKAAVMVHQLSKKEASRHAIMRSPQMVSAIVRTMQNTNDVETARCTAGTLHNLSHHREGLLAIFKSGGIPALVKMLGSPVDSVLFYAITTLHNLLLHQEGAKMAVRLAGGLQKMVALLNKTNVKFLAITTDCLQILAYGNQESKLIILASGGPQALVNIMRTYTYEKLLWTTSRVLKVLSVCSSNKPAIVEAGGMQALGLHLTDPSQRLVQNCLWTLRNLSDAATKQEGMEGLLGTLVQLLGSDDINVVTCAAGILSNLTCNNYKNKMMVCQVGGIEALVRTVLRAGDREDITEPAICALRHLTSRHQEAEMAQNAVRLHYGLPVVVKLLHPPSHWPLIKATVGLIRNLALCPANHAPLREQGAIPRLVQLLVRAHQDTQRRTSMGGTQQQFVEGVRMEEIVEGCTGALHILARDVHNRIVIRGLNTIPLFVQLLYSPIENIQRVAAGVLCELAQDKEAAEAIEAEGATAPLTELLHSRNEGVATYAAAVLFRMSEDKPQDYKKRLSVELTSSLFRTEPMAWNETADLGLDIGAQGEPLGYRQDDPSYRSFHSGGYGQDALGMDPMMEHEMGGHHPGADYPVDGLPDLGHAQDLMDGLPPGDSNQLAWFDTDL

T2: full-length beta-Catenin (Uniprot ID P35222) (Homo sapiens (Human), UniProt P35222 2-781)
T2 construct: also called bCat; B-Catenin
T2 sequence: T1 sequence

T3: Bcat-Halo (UniProt P35222 1-781, HaloTag NanoBRET 618 Ligand bound in the assay)
T3 construct: Expressed by transfection in HEK293 cells; also called beta-catenin HaloTag NanoBRET construct; not shown: HaloTag
T3 sequence (looked up): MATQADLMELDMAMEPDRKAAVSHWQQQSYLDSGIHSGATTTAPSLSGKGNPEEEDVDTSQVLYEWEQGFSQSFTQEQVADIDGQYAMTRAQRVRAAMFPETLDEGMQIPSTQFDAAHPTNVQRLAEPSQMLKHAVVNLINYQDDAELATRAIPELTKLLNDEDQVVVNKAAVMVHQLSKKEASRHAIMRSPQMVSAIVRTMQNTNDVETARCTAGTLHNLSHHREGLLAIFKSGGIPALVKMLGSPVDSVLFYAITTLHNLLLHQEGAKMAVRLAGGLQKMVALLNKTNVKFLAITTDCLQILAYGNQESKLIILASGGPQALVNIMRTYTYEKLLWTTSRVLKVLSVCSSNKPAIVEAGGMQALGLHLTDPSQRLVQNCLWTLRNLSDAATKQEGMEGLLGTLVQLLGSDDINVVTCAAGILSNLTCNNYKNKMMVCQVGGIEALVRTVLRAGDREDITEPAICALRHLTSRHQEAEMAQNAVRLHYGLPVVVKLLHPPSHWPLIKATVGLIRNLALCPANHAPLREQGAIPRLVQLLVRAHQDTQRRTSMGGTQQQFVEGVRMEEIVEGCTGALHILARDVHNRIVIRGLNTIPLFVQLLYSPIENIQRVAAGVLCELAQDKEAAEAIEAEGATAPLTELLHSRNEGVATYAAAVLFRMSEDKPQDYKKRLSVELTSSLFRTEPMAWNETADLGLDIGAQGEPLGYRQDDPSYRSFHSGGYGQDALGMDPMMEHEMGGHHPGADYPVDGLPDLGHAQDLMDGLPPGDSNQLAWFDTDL

T4: full-length beta-Catenin (Uniprot ID P35222) (Homo sapiens (Human), UniProt P35222 2-781)
T4 construct: The assay protocols say only 'full-length'; No tag is stated, although the AlphaScreen kit is a Histidine (Nickel Chelate) kit; also called B-Catenin; bCat
T4 sequence: T1 sequence

T5: beta-catenin in TCF/LEF luciferase reporter cells (Homo sapiens (Human), UniProt P35222 1-781)
T5 sequence: T3 sequence (looked up)

B1: I-1157 (peptide)
peptide: Ac-[αAllylPro]DF[B5(4)]DDALFT[PyrS2″][Phe(2-Cl)][Bta]S-NH2
modifications: staple 1-4, 4-11
notes: Stapled (stitched) peptide composition; olefin isomer not specified
B2: I-1155 (peptide)
peptide: Ac-[αAllylPro]DF[B5(16)]DDLLFS[PyrS2″][Phe(2-Cl)][Bta]Q-NH2
modifications: staple 1-4, 4-11
notes: as for B1
B3: I-1154 (peptide)
peptide: Ac-[αAllylPro]DF[B5(16)]DDALFS[PyrS2″][Phe(2-Cl)][Bta]Q-NH2
modifications: staple 1-4, 4-11
notes: as for B1
B4: I-1153 (peptide)
peptide: Ac-[αAllylPro]DF[B5(16)]DDLAFS[PyrS2″][Phe(2-Cl)][Bta]Q-NH2
modifications: staple 1-4, 4-11
notes: as for B1
B5: I-1143 (peptide)
peptide: Ac-[αAllylPro]DF[B5]DDAAFS[PyrS2][Phe(2-Cl)][Bta][hSer]-NH2
modifications: staple 1-4, 4-11
notes: as for B1
B6: I-1146 (peptide)
peptide: Ac-[αAllylPro]DF[B5(16)]DDAAFL[PyrS2″][Phe(2-Cl)][Bta][dT]-NH2
modifications: staple 1-4, 4-11
notes: as for B1
B7: I-1145 (peptide)
peptide: Ac-[αAllylPro]DF[B5]DDAAFL[PyrS2][Phe(2-Cl)][Bta]T-NH2
modifications: staple 1-4, 4-11
notes: as for B1
B8: I-1142 (peptide)
peptide: Ac-[αAllylPro]DF[B5]DDAAFS[PyrS2][Phe(2-Cl)][Bta][dT]-NH2
modifications: staple 1-4, 4-11
notes: as for B1
B9: I-1156 (peptide)
peptide: Ac-[αAllylPro]DF[B5(4)]DDLAFT[PyrS2″][Phe(2-Cl)][Bta]S-NH2
modifications: staple 1-4, 4-11
notes: as for B1
B10: I-349 (peptide)
peptide: XAAXDDAAFVXFWQ
modifications: not fully specified; N-terminal Ac; C-terminal NH2; PL3 at 1, B5 at 4, S8 at 11 (stapled 1-4 and 4-11)
notes: Stapled peptide composition; Later-eluting isomer composition; also called Ac-PL3-Ala-Ala-B5-Asp-Asp-Ala-Ala-Phe-Val-S8-Phe-Trp-Gln-NH2
B11: I-348 (peptide)
peptide: XAAXDDAAFVXFWQ
modifications: not fully specified; N-terminal Ac; C-terminal NH2; PL3 at 1, B5 at 4, S8 at 11 (stapled 1-4 and 4-11)
notes: Stapled peptide composition; Earlier-eluting isomer composition; also called Ac-PL3-Ala-Ala-B5-Asp-Asp-Ala-Ala-Phe-Val-S8-Phe-Trp-Gln-NH2
B12: I-350 (peptide)
peptide: XDAXADAAFVXFWQ
modifications: not fully specified; N-terminal Ac; C-terminal NH2; PL3 at 1, B5 at 4, S8 at 11 (stapled 1-4 and 4-11)
notes: Stapled peptide composition; Earlier-eluting isomer composition; also called Ac-PL3-Asp-Ala-B5-Ala-Asp-Ala-Ala-Phe-Val-S8-Phe-Trp-Gln-NH2
B13: I-351 (peptide)
peptide: XDAXADAAFVXFWQ
modifications: not fully specified; N-terminal Ac; C-terminal NH2; PL3 at 1, B5 at 4, S8 at 11 (stapled 1-4 and 4-11)
notes: Stapled peptide composition; Later-eluting isomer composition; also called Ac-PL3-Asp-Ala-B5-Ala-Asp-Ala-Ala-Phe-Val-S8-Phe-Trp-Gln-NH2
B14: I-352 (peptide)
peptide: Ac-[αAllylPro]DA[B5(16)]DAAAFV[S8]FWQ-NH2
modifications: staple 1-4, 4-11
notes: Stapled peptide composition; also called Ac-PL3-Asp-Ala-B5-Asp-Ala-Ala-Ala-Phe-Val-S8-Phe-Trp-Gln-NH2

Biological target: T1, full-length beta-Catenin (Uniprot ID …)
Test: fluorescence polarization competition vs 5FAM-TCF4(10-53) on full-length beta-catenin
Method in brief: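 Plate incubated 60 minutes at 20° C. protected from light before reading. Concentrations given are final.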

Binder	IC50 [µM]
B1	0.036
B2	0.06
B3	0.045
B4	0.012
B5	0.012
B6	0.033
B7	0.018
B8	0.022
B9	0.014

Biological target: T2, full-length beta-Catenin (Uniprot ID …)
Test: fluorescence polarization competition; full-length beta-catenin, 5FAM-TCF4(10-53) probe as competitor
Experimental: The plate was incubated protected from light for 60 minutes at 20° C. prior to read. Reads were performed on a CLARIOstar plate reader (BMG Labtech) in duplicate, and data were fitted to a 1:1 binding model with hill slope using an in-house script. All provided concentrations are final concentrations.

Binder	IC50 [µM]
Ac-[αAllylPro]NF[B5(4)]DT[Lys(iPr)]AFL[PyrS2″]F[Bta]Q-NH2 (staple 1-4, 4-11) [I-1580]	1.43
Ac-[αAllylPro]NW[B5(4)]DT[Lys(iPr)]AFL[PyrS2″]F[Bta]Q-NH2 (staple 1-4, 4-11) [I-1581]	10
Ac-[αAllylPro]N[Lys(iPr)][B5(4)]DT[Lys(iPr)]AFL[PyrS2]F[Bta]Q-NH2 (staple 1-4, 4-11) [I-1591]	3.11
Ac-[αAllylPro]NS[B5(4)]DT[Lys(iPr)]AFL[PyrS2″]F[Bta]Q-NH2 (staple 1-4, 4-11) [I-1583]	3.42
Ac-[αAllylPro]NQ[B5(4)]DT[Lys(iPr)]AFL[PyrS2″]F[Bta]Q-NH2 (staple 1-4, 4-11) [I-1584]	2.44
Ac-[αAllylPro]NL[B5(4)]DT[Lys(iPr)]AFL[PyrS2″]F[Bta]Q-NH2 (staple 1-4, 4-11) [I-1582]	1.22
Ac-[αAllylPro]N[tBuAla][B5(4)]DT[Lys(iPr)]AFL[PyrS2″]F[Trp(1-Me)]Q-NH2 (staple 1-4, 4-11) [I-1589]	10
Ac-[αAllylPro]N[tBuAla][B5(4)]DT[Lys(iPr)]AFL[PyrS2″]FYQ-NH2 (staple 1-4, 4-11) [I-1585]	10
Ac-[αAllylPro]N[tBuAla][B5(4)]DT[Lys(iPr)]AFL[PyrS2]YWQ-NH2 (staple 1-4, 4-11) [I-1590]	7.52

Biological target: T3, Bcat-Halo
Test: NanoBRET Abs IC50 in HEK293 cells; competitor TCF4-Luc on Bcat-Halo

Binder	IC50 [µM]
B1	> 20
B4	> 20
B5	33.1
B6	> 20
B7	30.6
B8	> 20
B9	26.1

Biological target: T4, full-length beta-Catenin (Uniprot ID …)
Test: AlphaScreen competition; peptide titrated against full-length beta-catenin + biotin-TCF4(10-53)
Experimental: Equal volume of the titrated peptide was added to the plate and incubated for 15 minutes at 20° C. Then 4 uL of donor and 4 uL acceptor beads at 10 ug/mL were added to the plate, for a 16 uL reaction pool and protected from light for 60 minutes at 20° C. prior to read. Reads were performed on a CLARIOstar plate reader (BMG Labtech) in duplicate, and data were fitted to a 1:1 binding model with hill slope using an in-house script. All provided concentrations are final concentrations.

Binder	EC50 [µM]
B10	7.19
B11	10
B12	10
B13	10
B14	0.377

Biological target: T5, beta-catenin in TCF/LEF luciferase …
Test: cell-based or functional assay

Binder	TCF Reporter Assay Abs IC50 (uM), peptide + ST-Protein [µM]	TCF Reporter Assay Abs IC50 (uM), peptide only [µM]
Ac-[αAllylPro]D[tBuAla][B5(3)]D[TfeGA]AAFL[PyrS2][3Thi][Bta]Q-NH2 (staple 1-4, 4-11) [I-849]	0.2	5
Ac-[αAllylPro]D[tBuAla][B5(3)]D[TfeGA]AAF[hSer][PyrS2″][Phe(2-Cl)][Bta][hSer]-NH2 (staple 1-4, 4-11) [I-993]	0.2	5
Ac-[αAllylPro]D[tBuAla][B5″]D[TfeGA]AAFN[PyrS2(3)][3Thi][Bta]Q-NH2 (staple 1-4, 4-11) [I-762]	0.3	7

Source: US20240116985A1 (published 2024)
